Assay results reported in patent publication US20170137512A1 (Ablynx, published 2017).
Like-named read-outs stand apart in the source and are kept apart here.

T1: cyno Kv1.3 (Macaca fascicularis, UniProt P22001 1-575 (human entry))
T1 chain: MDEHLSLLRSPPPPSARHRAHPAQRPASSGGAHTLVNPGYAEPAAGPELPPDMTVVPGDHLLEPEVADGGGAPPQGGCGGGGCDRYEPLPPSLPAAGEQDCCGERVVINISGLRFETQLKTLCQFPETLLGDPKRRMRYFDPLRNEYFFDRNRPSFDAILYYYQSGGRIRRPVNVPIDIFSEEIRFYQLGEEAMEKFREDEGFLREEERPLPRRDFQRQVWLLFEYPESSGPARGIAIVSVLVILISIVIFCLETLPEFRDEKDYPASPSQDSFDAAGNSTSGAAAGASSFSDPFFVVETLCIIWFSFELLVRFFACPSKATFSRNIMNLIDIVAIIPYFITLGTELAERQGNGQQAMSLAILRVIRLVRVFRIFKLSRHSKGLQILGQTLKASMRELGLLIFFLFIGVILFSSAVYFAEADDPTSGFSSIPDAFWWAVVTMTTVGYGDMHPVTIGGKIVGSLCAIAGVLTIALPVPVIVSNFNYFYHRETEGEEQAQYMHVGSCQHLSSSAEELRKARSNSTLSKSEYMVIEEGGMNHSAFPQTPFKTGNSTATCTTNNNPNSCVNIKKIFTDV

B1: A019400003 (VHH)
VHH: EVQLVESGGGLVQAGGSLSLSCTASGGTFRNFGMGWFRQAQGKEREFVAAISRTGGHTYYQDSVKGRFTISKDNAKNILSLQMNSLKPEDTAVYYCAARFRFGDGTYYYQRAFYDFWGQGTQVTVSS
notes: Monovalent Nanobody of family 1, purified from E. coli TG1; not shown: triple Flag, His6 tag
B2: A019400014 (other)
chain: EVQLVESGGGLVQAGGSLSLSCTASGGTFRNFGMGWFRQAQGKEREFVAAISRTGGHTYYQDSVKGRFTISKDNAKNILSLQMNSLKPEDTAVYYCAARFRFGDGTYYYQRAFYDFWGQGTLVTVSSGGGGSGGGGSGGGGSGGGGSGGGGSGGGGSGGGGSEVQLVESGGGLVQAGGSLGLSCSASGLLFSRNSAGWYRQAPGKQREFVARIRMGGSINYADTVKGRFTISRDNAKNTVYLQMNSLKPEDTAVYYCSSWRTGFYEYWGQGTLVTVSS
notes: Biparatopic Nanobody construct (family 1 - family 12); also called A019400003-35GS-A0194009G09; A019400011
B3: A019400032 (VHH)
chain: DVQLVESGGGLVQAGGSLGLSCSASGLLFSRNSAGWYRQAPGKRREFVARIRMGGSINYADSVKGRFTVSRDNAKNMMYLQMNDLKPEDTAVYFCSGWREGFYEYWGQGTLVTVSSGGGGSGGGGSGGGGSGGGGSGGGGSGGGGSGGGGSEVQLVESGGGLVQAGGSLGLSCSASGLLFSRNSAGWYRQAPGKRREFVARIRMGGSINYADSVKGRFTVSRDNAKNMMYLQMNDLKPEDTAVYFCSGWREGFYEYWGQGTLVTVSS
B4: A019400009 (VHH)
chain: EVQLVESGGGLVQAGGSLGLSCSASGLLFSRNSAGWYRQAPGKQREFVARIRMGGSINYADTVKGRFTISRDNAKNTVYLQMNSLKPEDTAVYYCSSWRTGFYEYWGQGTLVTVSSGGGGSGGGGSGGGGSGGGGSGGGGSGGGGSGGGGSEVQLVESGGGLVQAGGSLGLSCSASGLLFSRNSAGWYRQAPGKQREFVARIRMGGSINYADTVKGRFTISRDNAKNTVYLQMNSLKPEDTAVYYCSSWRTGFYEYWGQGTLVTVSS
B5: A019400013 (VHH)
chain: B4 chain
notes: Bivalent Nanobody construct (family 12 - family 12), without Alb11; also called A0194009G09-35GS-A0194009G09
B6: A019400012 (other)
chain: EVQLVESGGGLVQAGGSLGLSCSASGLLFSRNSAGWYRQAPGKQREFVARIRMGGSINYADTVKGRFTISRDNAKNTVYLQMNSLKPEDTAVYYCSSWRTGFYEYWGQGTLVTVSSGGGGSGGGGSGGGGSGGGGSGGGGSGGGGSGGGGSEVQLVESGGGLVQAGGSLSLSCTASGGTFRNFGMGWFRQAQGKEREFVAAISRTGGHTYYQDSVKGRFTISKDNAKNILSLQMNSLKPEDTAVYYCAARFRFGDGTYYYQRAFYDFWGQGTLVTVSS
B7: A019400004 (other)
chain: EVQLVESGGGLVQAGGSLSLSCTASGGTFRNFGMGWFRQAQGKEREFVAAISRTGGHTYYQDSVKGRFTISKDNAKNILSLQMNSLKPEDTAVYYCAARFRFGDGTYYYQRAFYDFWGQGTQVTVSSGGGGSGGGGSGGGGSGGGGSGGGGSGGGGSGGGGSGGGGSEVQLVESGGGLVQAGGSLSLSCTASGGTFRNFGMGWFRQAQGKEREFVAAISRTGGHTYYQDSVKGRFTISKDNAKNILSLQMNSLKPEDTAVYYCAARFRFGDGTYYYQRAFYDFWGQGTQVTVSS
notes: Bivalent Nanobody construct (family 1 - family 1), expressed in Pichia; also called A019400003-40GS-A019400003
B8: A0194009G09 (VHH)
VHH: EVQLVESGGGLVQAGGSLGLSCSASGLLFSRNSAGWYRQAPGKQREFVARIRMGGSINYADTVKGRFTISRDNAKNTVYLQMNSLKPEDTAVYYCSSWRTGFYEYWGQGTLVTVSS
notes: Monovalent Nanobody of family 12; not shown: triple Flag, His6 tag
B9: A019400015 (VHH)
chain: EVQLVESGGGLVQAGGSLGLSCSASGLLFSRNSAGWYRQAPGKQREFVARIRMGGSINYADTVKGRFTISRDNAKNTVYLQMNSLKPEDTAVYYCSSWRTGFYEYWGQGTLVTVSSGGGGSGGGGSGGGGSGGGGSGGGGSGGGGSGGGGSEVQLVESGGGLVQAGGSLGLSCSASGLLFSRNSAGWYRQAPGKQREFVARIRMGGSINYADTVKGRFTISRDNAKNTVYLQMNSLKPEDTAVYYCSSWRTGFYEYWGQGTLVTVSSGGGGSGGGGSGGGGSGGGGSGGGGSGGGGSGGGGSEVQLVESGGGLVQAGGSLGLSCSASGLLFSRNSAGWYRQAPGKQREFVARIRMGGSINYADTVKGRFTISRDNAKNTVYLQMNSLKPEDTAVYYCSSWRTGFYEYWGQGTLVTVSS
notes: Trivalent Nanobody construct (family 12); also called A0194009G09-35GS-A0194009G09-35GS-A0194009G09

Experiments:
cyno Kv1.3 [1] = target: T1, cyno Kv1.3
human Kv1.3 [2] = target: T2, human Kv1.3 (Homo sapiens, UniProt P22001 1-575)
human Kv1.3 [3] = target: T2, human Kv1.3; test: cell-based or functional assay
rat Kv1.3 [4] = target: T3, rat Kv1.3 (Rattus norvegicus, UniProt P15384 1-525); test: FACS, CHO cells expressing rat Kv1.3
T3 construct: Expressed on CHO cells

cyno Kv1.3 [5] = target: T1, cyno Kv1.3; test: FACS, CHO cells expressing cyno Kv1.3
human Kv1.3 [6] = target: T2, human Kv1.3; test: FACS, CHO cells expressing human Kv1.3
cyno Kv1.3 [7] = target: T1, cyno Kv1.3
human Kv1.3 [8] = target: T2, human Kv1.3; test: cell-based or functional assay; remark: listed apart in the source
human Kv1.3 [9] = target: T2, human Kv1.3; test: cell-based or functional assay; remark: listed apart in the source
human Kv1.3 [10] = target: T2, human Kv1.3; test: cell-based or functional assay; remark: listed apart in the source
rat Kv1.3 [11] = target: T3, rat Kv1.3; test: FACS, CHO cells expressing rat Kv1.3; remark: listed apart in the source
cyno Kv1.3 [12] = target: T1, cyno Kv1.3; test: FACS, CHO cells expressing cyno Kv1.3
human Kv1.3 [13] = target: T2, human Kv1.3; test: FACS, CHO cells expressing human Kv1.3; remark: listed apart in the source
human Kv1.3 [14] = target: T2, human Kv1.3; test: cell-based or functional assay; remark: listed apart in the source
rat Kv1.3 [15] = target: T3, rat Kv1.3; test: FACS, CHO cells expressing rat Kv1.3; remark: listed apart in the source
cyno Kv1.3 [16] = target: T1, cyno Kv1.3; test: FACS, CHO cells expressing cyno Kv1.3
rat Kv1.3 [17] = target: T3, rat Kv1.3; test: FACS, CHO cells expressing rat Kv1.3, with 50 µM HSA
cyno Kv1.3 [18] = target: T1, cyno Kv1.3; test: FACS, CHO cells expressing cyno Kv1.3, with 50 µM HSA
human Kv1.3 [19] = target: T2, human Kv1.3; test: cell-based or functional assay; remark: listed apart in the source
human Kv1.3 [20] = target: T2, human Kv1.3; test: cell-based or functional assay; remark: listed apart in the source

T2 sequence (P22001 whole entry): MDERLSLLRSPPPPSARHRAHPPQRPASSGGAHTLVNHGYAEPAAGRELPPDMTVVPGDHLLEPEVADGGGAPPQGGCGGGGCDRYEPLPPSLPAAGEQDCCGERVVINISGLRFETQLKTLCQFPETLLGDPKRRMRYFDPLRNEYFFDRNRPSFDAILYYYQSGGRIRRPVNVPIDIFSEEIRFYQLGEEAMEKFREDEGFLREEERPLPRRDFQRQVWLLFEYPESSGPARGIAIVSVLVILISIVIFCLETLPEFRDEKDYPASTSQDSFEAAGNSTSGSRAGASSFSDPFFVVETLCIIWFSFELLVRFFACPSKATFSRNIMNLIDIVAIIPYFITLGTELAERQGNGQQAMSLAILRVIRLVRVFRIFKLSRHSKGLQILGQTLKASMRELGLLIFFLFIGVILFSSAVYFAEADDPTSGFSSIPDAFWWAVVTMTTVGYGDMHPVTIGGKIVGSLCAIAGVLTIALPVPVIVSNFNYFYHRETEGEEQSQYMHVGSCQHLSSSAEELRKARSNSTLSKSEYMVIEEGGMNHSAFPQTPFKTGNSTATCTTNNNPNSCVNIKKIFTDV

Row | Binder | IC50 (cyno Kv1.3 [7]) | Average IC50, Kv1.3 current, IonFlux automated patch clamp, HEK293H cells (human Kv1.3 [8]) | Average IC50, Kv1.3 current, IonWorks perforated patch clamp, CHL cells (human Kv1.3 [9]) | IC50, CD25 read out, CCR7-CD45RA- T cells stimulated with anti-CD3 (human Kv1.3 [10]) | IC50, IFNγ read out, CCR7-CD45RA- T cells stimulated with anti-CD3 (human Kv1.3 [10]) | EC50 (rat Kv1.3 [11]) | EC50 (cyno Kv1.3 [12]) | EC50 (human Kv1.3 [13]) | also measured
1 | B1 | – | – | – | – | – | – | – | – | IC50 (cyno Kv1.3 [1]): 1.3 nM; IC50 (read off the curve) (human Kv1.3 [2]): ~30 nM; Average IC50, Kv1.3 current, IonWorks perforated patch clamp, CHL cells (human Kv1.3 [3]): > 1000 nM; EC50 (rat Kv1.3 [4]): 380 nM; EC50 (cyno Kv1.3 [5]): 2.5 nM; EC50 (human Kv1.3 [6]): 6.2 nM
2 | B2 | 0.61 nM | 14 nM | 14 nM | 0.11 nM | 0.32 nM | 0.74 nM | 0.41 nM | 1.1 nM | –
3 | B3 | 0.56 nM | – | 1.2 nM | 0.12 nM | 0.069 nM | – | – | – | IC50, CD25 read out, T cell activation assay (human Kv1.3 [14]): 0.12 nM; IC50, CD25 read out, T cell activation assay, with 10 µM HSA (human Kv1.3 [14]): 0.33 nM; IC50, IFNγ read out, T cell activation assay (human Kv1.3 [14]): 0.069 nM; IC50, IFNγ read out, T cell activation assay, with 10 µM HSA (human Kv1.3 [14]): 0.086 nM
4 | B4 | – | 0.73 nM | 0.81 nM | – | – | – | – | – | –
5 | B5 | 0.66 nM | – | – | 0.12 nM | 0.083 nM | 0.49 nM | 0.24 nM | 0.32 nM | IC50, CD25 read out, T cell activation assay (human Kv1.3 [14]): 0.12 nM; IC50, CD25 read out, T cell activation assay, with 10 µM HSA (human Kv1.3 [14]): 0.037 nM; IC50, IFNγ read out, T cell activation assay (human Kv1.3 [14]): 0.083 nM; IC50, IFNγ read out, T cell activation assay, with 10 µM HSA (human Kv1.3 [14]): 0.031 nM; EC50 (rat Kv1.3 [15]): 0.704 nM; EC50 (cyno Kv1.3 [16]): 0.33 nM; EC50 (rat Kv1.3 [17]): 0.85 nM; EC50 (cyno Kv1.3 [18]): 0.45 nM
6 | B6 | 0.5 nM | 4.2 nM | 4.2 nM | 0.31 nM | 0.31 nM | – | – | – | –
7 | B7 | 0.64 nM | – | > 1000 nM | – | – | 1.1 nM | 0.44 nM | 2.2 nM | –
8 | B8 | – | – | – | – | – | – | – | – | IC50 (cyno Kv1.3 [1]): 9.8 nM; IC50 (read off the curve) (human Kv1.3 [2]): ~10 nM; Average IC50, Kv1.3 current, IonFlux automated patch clamp, HEK293H cells (human Kv1.3 [19]): 8.2 nM; Average IC50, Kv1.3 current, IonWorks perforated patch clamp, CHL cells (human Kv1.3 [3]): 37 nM; IC50, CD25 read out, CCR7-CD45RA- T cells stimulated with anti-CD3 (human Kv1.3 [20]): 62 nM; IC50, IFNγ read out, CCR7-CD45RA- T cells stimulated with anti-CD3 (human Kv1.3 [20]): 47 nM; EC50 (rat Kv1.3 [4]): 240 nM; EC50 (cyno Kv1.3 [5]): 11 nM; EC50 (human Kv1.3 [6]): 7.9 nM
9 | B9 | 0.2 nM | – | 0.8 nM | 0.059 nM | 0.032 nM | 0.44 nM | 0.31 nM | 0.66 nM | –
